We go through 2 molecules from patent US20170022281A1 (AbbVie / Abbott, published 2017).

For test [1], the target named is T1, human PRLR (Biacore antigen) (human, UniProt P16471 25-234, limits assumed).
T1 construct: The construct injected over captured antibody is not described (a soluble form is likely); also called huPRLR
T1 sequence: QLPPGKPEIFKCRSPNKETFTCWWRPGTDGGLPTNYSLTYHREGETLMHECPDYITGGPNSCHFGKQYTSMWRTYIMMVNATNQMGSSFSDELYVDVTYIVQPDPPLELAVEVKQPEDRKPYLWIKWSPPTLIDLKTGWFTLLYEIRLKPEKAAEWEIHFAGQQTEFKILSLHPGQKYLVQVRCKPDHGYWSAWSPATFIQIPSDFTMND
The test can be described thus: SPR Biacore. Background: SPR reads the build-up and loss of mass on a sensor chip optically.

Test [2] has as its target T2, cyno PRLR (Biacore antigen) (cyno, UniProt A0A2K5WXK1 25-234).
T2 construct: also called cyPRLR
T2 sequence: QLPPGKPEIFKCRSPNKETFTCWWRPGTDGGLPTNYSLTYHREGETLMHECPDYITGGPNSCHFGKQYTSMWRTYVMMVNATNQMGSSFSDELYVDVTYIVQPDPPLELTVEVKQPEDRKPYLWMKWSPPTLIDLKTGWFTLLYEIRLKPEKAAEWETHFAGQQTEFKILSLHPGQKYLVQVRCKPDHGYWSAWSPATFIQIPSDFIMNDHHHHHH
Put plainly: SPR Biacore. An outline of the steps:
(§1)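 Association rate, dissociation rate and dissociation constant were measured by surface plasmon resonance on a Biacore instrument. PRLR antigen was tested at 600 nM, 66.67 nM and 7.41 nM, a 3-point, 9-fold dilution series. Constants came from a 1:1 binding model fit (local Rmax, mass-transport term included) in Biacore T200 Evaluation Software.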

Test [3] addresses T3, murine PRLR (Biacore antigen) (murine, UniProt Q08501 20-229, limits assumed).
T3 construct: also called muPRLR
T3 sequence (looked up): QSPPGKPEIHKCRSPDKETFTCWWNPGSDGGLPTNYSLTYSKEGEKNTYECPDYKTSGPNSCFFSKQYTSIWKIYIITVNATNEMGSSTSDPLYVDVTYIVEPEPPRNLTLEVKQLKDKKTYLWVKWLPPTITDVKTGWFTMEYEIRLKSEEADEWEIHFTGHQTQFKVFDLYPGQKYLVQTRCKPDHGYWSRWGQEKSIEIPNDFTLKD
The test can be described thus: SPR Biacore. Put shortly: as §1

The target of test [4] is T1, human PRLR (Biacore antigen). The test can be described thus: SPR Biacore. An outline of the steps:
as §1
This is another data set of the same source.

For test [5], the target named is T4, cyno PRLR ECD-his6 protein (cyno).
T4 chain: T2 sequence
Put plainly: ELISA on ECD. Put shortly: (§2)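 PRLR was captured on blocked plates for 1 h, then incubated 1 h with serial antibody dilutions in PBS pH 7.4/0.05% Tween 20 containing 10% Superblock. HRP secondary and TMB gave signal read at 450 nm, and EC50 came from curve fitting.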

Test [6] concerns the target T5, human PRLR ECD-Fc fusion protein (human, UniProt P16471 25-233).
T5 construct: not shown: Fc region (captured by goat anti-human Fc)
T5 sequence: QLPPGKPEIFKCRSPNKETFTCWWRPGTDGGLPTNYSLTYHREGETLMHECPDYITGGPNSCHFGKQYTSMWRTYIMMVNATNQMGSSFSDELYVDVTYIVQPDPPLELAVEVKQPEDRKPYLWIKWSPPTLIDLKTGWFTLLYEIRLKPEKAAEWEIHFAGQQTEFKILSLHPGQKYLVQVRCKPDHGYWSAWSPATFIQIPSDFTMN
The test can be described thus: ELISA on ECD. An outline of the steps: as §2

For test [7], the target named is T6, human PRLR on cells (human, UniProt P16471 25-622).
T6 sequence: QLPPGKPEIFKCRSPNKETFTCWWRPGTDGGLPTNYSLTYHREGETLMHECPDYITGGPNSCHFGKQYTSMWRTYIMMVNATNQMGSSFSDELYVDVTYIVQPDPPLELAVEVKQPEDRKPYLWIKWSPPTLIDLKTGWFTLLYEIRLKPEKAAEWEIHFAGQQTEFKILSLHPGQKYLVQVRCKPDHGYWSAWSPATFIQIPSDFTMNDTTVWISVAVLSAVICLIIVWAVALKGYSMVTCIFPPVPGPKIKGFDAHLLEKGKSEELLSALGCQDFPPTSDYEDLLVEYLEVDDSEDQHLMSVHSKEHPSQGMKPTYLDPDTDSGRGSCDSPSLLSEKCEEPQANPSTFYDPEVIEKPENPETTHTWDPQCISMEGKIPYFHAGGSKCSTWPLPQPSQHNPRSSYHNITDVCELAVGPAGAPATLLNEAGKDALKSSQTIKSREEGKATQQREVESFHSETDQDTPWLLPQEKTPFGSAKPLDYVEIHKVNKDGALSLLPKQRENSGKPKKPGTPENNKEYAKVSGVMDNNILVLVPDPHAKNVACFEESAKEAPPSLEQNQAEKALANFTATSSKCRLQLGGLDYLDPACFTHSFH
The test can be described thus: cell-based or functional assay.

Test [8] deals with cyno PRLR on Baf3-cyPRLR cells (cyno). The test can be described thus: cell-based or functional assay.
Test [9] deals with T7, mouse PRLR on Baf3-mPRLR cells (mouse, UniProt Q08501 20-608).
T7 sequence (looked up): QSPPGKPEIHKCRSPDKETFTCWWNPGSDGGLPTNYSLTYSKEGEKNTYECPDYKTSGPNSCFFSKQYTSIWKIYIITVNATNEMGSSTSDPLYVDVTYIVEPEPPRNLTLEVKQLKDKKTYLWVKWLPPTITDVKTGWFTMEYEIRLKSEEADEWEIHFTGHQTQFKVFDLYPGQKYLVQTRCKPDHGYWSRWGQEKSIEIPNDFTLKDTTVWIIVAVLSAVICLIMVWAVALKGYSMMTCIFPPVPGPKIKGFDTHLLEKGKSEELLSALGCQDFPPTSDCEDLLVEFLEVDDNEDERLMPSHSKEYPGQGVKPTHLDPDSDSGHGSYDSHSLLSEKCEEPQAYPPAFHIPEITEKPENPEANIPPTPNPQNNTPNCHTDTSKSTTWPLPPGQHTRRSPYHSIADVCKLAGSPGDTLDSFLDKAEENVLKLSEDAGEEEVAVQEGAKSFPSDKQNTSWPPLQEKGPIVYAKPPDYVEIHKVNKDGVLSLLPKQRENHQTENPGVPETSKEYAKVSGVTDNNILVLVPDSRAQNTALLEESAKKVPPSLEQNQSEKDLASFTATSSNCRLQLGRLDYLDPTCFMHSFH
The test can be described thus: cell-based or functional assay.

Where a chain is given by its changes, count along the chain named. Some results are limits rather than exact numbers.

B1: Ab36 (antibody, human IgG1, kappa, V domains shown)
VH: EVQLVQSGAEVKKPGSSVKVSCKASGYTFTSYWIHWVRQAPGQGLEWMGEIDPSDSYTNYNQKFKGRVTITADKSTSTAYMELSSLRSEDTAVYYCARSFFTNWFAYWGQGTLVTVSS
VL: DVVMTQTPLSLSVTPGQPASISCRSSQSLVHSNGNTYLHWYLQKPGQSPQLLIYKVSNRFSGVPDRFSGSGSGTDFTLKISRVEAEDVGVYFCSQSTHVPFTFGGGTKVEIKR
notes: humanized from Ab7; G1; also called Ab4 HC.1 and Ab4 LC.1a
In general, Kd refers to the equilibrium constant for the complex coming apart. The low end stands for tighter binding, the high end for weaker binding. One may read the koff as a measure of how fast the partners let go of each other. Read a high koff as a short-lived complex. The term kon denotes a measure of how fast the partners come together. The EC50 is the midpoint of the concentration-response curve. In the case of B1, the “fold decrease in affinity against chAb7” value in test [1] was approximately 45 fold. Besides, the figures for the Kd in test [2], in test [3] and in [4] were 8.51 nM, 1140 nM and 8.13 nM, respectively. For the same molecule, the koff was found to be 0.00114 s⁻¹ in [2], 0.0568 s⁻¹ in test [3] and 0.00128 s⁻¹ in [4]. In addition, the kon turned out to be 133000 M⁻¹ s⁻¹ in test [2], 49800 M⁻¹ s⁻¹ in test [3] and 157000 M⁻¹ s⁻¹ in test [4]. The figures for the EC50 in test [5] and in [6] were 0.538 nM and 0.556 nM, respectively. Besides, in test [7], the “Baf3-hPRLR proliferation IC50” value came to 0.28 µg/mL. Also, in [8], the “Baf3-cyPRLR proliferation IC50” value is 0.41 µg/mL. For the same molecule, in test [9], the “Baf3-mPRLR proliferation IC50” value was more than 30 µg/mL.

B2: Ab55 (antibody, human IgG1, kappa, V domains shown)
VH: B1 VH with M48I, V68A, I70L, A72V, K74R, T76S, A97G
VL: B1 VL
notes: humanized from Ab7 (back mutations on Ab39); G1; also called Ab4 HC.1a.2 and Ab4 LC.1a
As for B2, the “fold weaker affinity than chAb7” value in test [1] was approximately 4 fold. Also, the Kd in test [2] came to 0.59 nM; in test [3] it was 140 nM; in [4], 0.67 nM. The values for the koff in test [2], in test [3] and in [4] were 9.8e-05 s⁻¹, 0.0063 s⁻¹ and 0.00012 s⁻¹, respectively. The kon in test [2] was 170000 M⁻¹ s⁻¹; in test [3] it was 44000 M⁻¹ s⁻¹; in test [4], 170000 M⁻¹ s⁻¹. For the same molecule, in [7], the “Baf3-hPRLR proliferation IC50” value is 0.92 µg/mL.
